Ends that are not written are not given here. * marks the point of attachment. FITC = O=C1OC2(c3ccc(O)cc3Oc3cc(O)ccc32)c2ccc(NC(=S)*)cc21
Key:
[1] = biological target: T1, GST-p38α (human p38α with an N-terminal GST-tag, non-phosphorylated) (human, UniProt Q16539 1-360); test: fluorescence polarisation; direct binding: FITC-TAB1(386-414) 10 nM with non-phosphorylated GST-p38α 0.17–22 μM, 1 h at RT; 20 mM Tris pH 7.5, 100 mM NaCl, 1 mM DTT, 10 mM MgCl2; conditions: both partners purified
T1 construct: p38α (MAPK14), human; non-phosphorylated; The results text says 'p38α'; the methods and the legend say GST-p38α; also called MAPK14; non-phosphorylated p38α; source: E. coli BL21 DE3 or BL21-DE3-pLysS, purified (Glutathione-Sepharose, dialysis); not shown: GST, N-terminal, kept
T1 sequence (Q16539 whole entry): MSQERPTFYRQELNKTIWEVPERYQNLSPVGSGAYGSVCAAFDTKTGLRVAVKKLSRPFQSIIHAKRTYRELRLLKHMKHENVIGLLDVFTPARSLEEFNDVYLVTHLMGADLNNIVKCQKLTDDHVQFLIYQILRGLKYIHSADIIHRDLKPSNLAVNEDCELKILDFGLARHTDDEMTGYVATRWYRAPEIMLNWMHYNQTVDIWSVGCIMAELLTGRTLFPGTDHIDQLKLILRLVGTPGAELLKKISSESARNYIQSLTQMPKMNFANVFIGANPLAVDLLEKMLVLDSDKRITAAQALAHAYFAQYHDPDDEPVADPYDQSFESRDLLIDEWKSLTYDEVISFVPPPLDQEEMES

[2] = biological target: T1, GST-p38α (human p38α with an N-terminal …); test: thermal shift assay; GST-p38α 1.5 μM with TAB1(386-414) peptide 15 μM, alone or with NC-37 / NC-38; 20 mM TRIS pH 7.5, 100 mM NaCl, 2 mM MgCl2, 2 mM DTT; SYPRO Orange, 25 to 95 °C; conditions: both partners purified

B1: FITC-TAB1(386-414) peptide (peptide)
peptide: {FITC}-RVYPVSVPYSSAQSTSKTSVTLSLVMPSQ
notes: source: synthetic peptide, bought: ChinaPeptides
[1]
  Kd: 989 ± 160 nM

B2: TAB1(386-414) peptide (peptide)
peptide: RVYPVSVPYSSAQSTSKTSVTLSLVMPSQ
notes: also called TAB1 peptide; source: synthetic peptide, bought: GenScript
[2]
  binding result: binds
